The text below walks through data of patent publication US20220031820.

The data set has as its system T1, recombinant syndecan-1.
T1 sequence (P18827 whole entry, species assumed, looked up): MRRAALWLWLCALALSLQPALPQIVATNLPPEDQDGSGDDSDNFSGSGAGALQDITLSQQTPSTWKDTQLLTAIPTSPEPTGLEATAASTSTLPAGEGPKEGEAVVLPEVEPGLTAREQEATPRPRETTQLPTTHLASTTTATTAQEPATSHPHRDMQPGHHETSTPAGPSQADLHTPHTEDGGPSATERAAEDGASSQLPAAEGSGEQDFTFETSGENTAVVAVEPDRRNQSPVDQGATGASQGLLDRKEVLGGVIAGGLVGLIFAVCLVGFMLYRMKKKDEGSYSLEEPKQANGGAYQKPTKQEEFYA

B1: recombinant GzmA (enzyme, UniProt P12544 29-262, looked up, species assumed)
Granzyme A: IIGGNEVTPHSRPYMVLLSLDRKTICAGALIAKDWVLTAAHCNLNKRSQVILGAHSITREEPTKQIMLVKKEFPYPCYDPATREGDLKLLQLMEKAKINKYVTILHLPKKGDDVKPGTMCQVAGWGRTHNSASWSDTLREVNITIIDRKVCNDRNHYNFNPVIGMNMVCAGSLRGGRDSCNGDSGSPLLCEGVFRGVTSFGLENKCGDPRGPGVYILLSKKHLNWIIMTIKGAV
In the case of B1, the “in vitro syndecan-1 cleavage assay (coomassie gel); GzmA 500 nM, syndecan-1 0.7 ug” value is on record as “syndecan-1 was cleaved by all three granzymes”.

B2: recombinant GzmK (in vitro syndecan-1 cleavage assay) (enzyme, UniProt P49863 27-264, looked up, species assumed)
Granzyme K: IIGGKEVSPHSRPFMASIQYGGHHVCGGVLIDPQWVLTAAHCQYRFTKGQSPTVVLGAHSLSKNEASKQTLEIKKFIPFSRVTSDPQSNDIMLVKLQTAAKLNKHVKMLHIRSKTSLRSGTKCKVTGWGATDPDSLRPSDTLREVTVTVLSRKLCNSQSYYNGDPFITKDMVCAGDAKGQKDSCKGDSGGPLICKGVFHAIVSGGHECGVATKPGIYTLLTKKYQTWIKSNLVPPHTN
Take B2: the “in vitro syndecan-1 cleavage assay (coomassie gel); GzmK 500 nM, syndecan-1 0.7 ug” value is reported as “syndecan-1 was cleaved by all three granzymes”.
